{"source": "patent US20250144178A1", "about": "“PHARMACEUTICAL COMPOSITION FOR CANCER TREATMENT COMPRISING FUSION PROTEIN INCLUDING IL-12 AND ANTI-FAP ANTIBODY AND ANTICANCER AGENT” (KANAPH THERAPEUTICS INC., priority 2022, published 2025)", "molecules": {"B1": {"name": "T1.01m: K&H bispecific: anti-mu FAP/mu IL-12, mu IgG2a DANG (seq18, seq19, seq20) (antibody)", "heavy": "QVQLQQSGAELARPGASVNLSCKASGYTFTNNGINWLKQRTGQGLEWIGEIYPRSTNTLYNEKFKGKATLTADRSSNTAYMELRSLTSEDSAVYFCARTLTAPFAFWGQGTLVTVSAAKTTAPSVYPLAPVCGDTTGSSVTLGCLVKGYFPEPVTLTWNSGSLSSGVHTFPAVLQSDLYTLSSSVTVTSSTWPSQSITCNVAHPASSTKVDKKIEPRGPTIKPCPPCKCPAPNLLGGPSVFIFPPKIKDVLMISLSPIVTCVVVAVSEDDPDVQISWFVNNVEVHTAQTQTHREDYGSTLRVVSALPIQHQDWMSGKEFKCKVNNKDLPAPIERTISKPKGSVRAPQVYVLPPPEEEMTKKQVTLWCMVTDFMPEDIYVEWTNNGKTELNYKNTEPVLDSDGSYFMYSKLRVEKKNWVERNSYSCSVVHEGLHNHHTTKSFSRTPGK", "light": "QIVLTQSPAIMSASPGEKVTMTCSASSGVNFMHWYQQKSGTSPKRWIFDTSKLASGVPARFSGSGSGTSYSLTISSMEAEDAATYYCQQWSFNPPTFGGGTKLEIKRADAAPTVSIFPPSSEQLTSGGASVVCFLNNFYPKDINVKWKIDGSERQNGVLNSWTDQDSKDSTYSMSSTLTLTKDEYERHNSYTCEATHKTSTSPIVKSFNRNEC", "chain": "MWELEKDVYVVEVDWTPDAPGETVNLTCDTPEEDDITWTSDQRHGVIGSGKTLTITVKEFLDAGQYTCHKGGETLSHSHLLLHKKENGIWSTEILKNFKNKTFLKCEAPNYSGRFTCSWLVQRNMDLKFNIKSSSSSPDSRAVTCGMASLSAEKVTLDQRDYEKYSVSCQEDVTCPTAEETLPIELALEARQQNKYENYSTSFFIRDIIKPDPPKNLQMKPLKNSQVEVSWEYPDSWSTPHSYFSLKFFVRIQRKKEKMKETEEGCNQKGAFLVEKTSTEVQCKGGNVCVQAQDRYYNSSCSKWACVPCRVRSGGGGSGGGGSGGGGSRVIPVSGPARCLSQSRNLLKTTDDMVKTAREKLKHYSCTAEDIDHEDITRDQTSTLKTCLPLELHKNESCLATRETSSTTRGSCLPPQKTSLMMTLCLGSIYEDLKMYQTEFQAINAALQNHNHQQIILDKGMLVAIDELMQSLNHNGETLRQKPPVGEADPYRVKMKLCILLHAFSTRVVTINRVMGYLSSAGGGGSGGGGSEPRGPTIKPCPPCKCPAPNLLGGPSVFIFPPKIKDVLMISLSPIVTCVVVAVSEDDPDVQISWFVNNVEVHTAQTQTHREDYGSTLRVVSALPIQHQDWMSGKEFKCKVNNKDLPAPIERTISKPKGSVRAPQVYVLPPPEEEMTKKQVTLSCAVTDFMPEDIYVEWTNNGKTELNYKNTEPVLDSDGSYFMVSKLRVEKKNWVERNSYSCSVVHEGLHNHHTTKSFSRTPGK"}}, "key": {"4T1 tumor": {"test_system": "4T1 tumor", "assay": "Tumor re-challenge in mice with complete response, 4T1 tumor", "assay_type": "in vivo, BALB/c mice", "details": "mice with complete response after T1.01m, left flank, FIG. 27", "description": "(§1) In order to evaluate whether tumor recurrence may be inhibited by inducing long-term immune response after fusion protein treatment, tumor re-challenge was performed in subjects in which complete response was achieved by administration of T1.01m in a tumor model transplanted with CT26 cells overexpressing FAP. BALB/c mice without a treatment history were used as control mice.\n(§2) 4T1 cells were subcutaneously injected into the left flank and CT26 cells were subcutaneously injected into the right flank of control mice and mice in which complete response was achieved by administration of T1.01m, to obtain a tumor recurrence model.\n(§3) CT26 cells and 4T1 cells were suspended in Hanks' Balanced salt solution (HBSS, Gibco) at a concentration of 1×10^6 cells/100 μl, respectively, and CT26 cells were transplanted into the subcutaneous region of the right flank of the mice using a 1 cc syringe (25G). Tumor formation and growth were evaluated by subcutaneous transplantation of 4T1 cells into the left flank of the same mice. Nine animals were used for the control group, and seven animals were used for the test group."}, "[1]": {"test_system": "FAP-overexpressing mouse colorectal cancer CT26", "assay": "Tumor growth inhibition by IL-12 mutation, FAP-overexpressing CT26, single i.v. dose", "assay_type": "in vivo, BALB/c mice", "details": "10 μg i.v. once, 15 days after administration, control PBS, FIG. 28", "description": "In order to evaluate the change in IL-12 activity according to the presence and extent of amino acid mutation, FAP-overexpressing mouse colorectal cancer CT26 was prepared by resuspending in PBS at a concentration of 5×10^5 cells/100 μl, and the tumor growth inhibitory ability was evaluated in a tumor animal model prepared by transplantation of the cells into 5-week-old female BALB/c mice.\nSpecifically, when the size of the tumor in the model reached 100 mm^3, the mice were randomly divided into groups. 100 μl of phosphate buffered saline (PBS) was administered once via tail vein injection of the control, and each of T1.01m, T1.02m and T1.03m was intravenously administered once at a dose of 10 μg."}, "[2]": {"test_system": "CT26 colorectal cancer with mouse FAP overexpressing NIH-3T3 cells", "assay": "Tumor growth inhibition, CT26 co-injected with mouse FAP overexpressing NIH-3T3", "assay_type": "in vivo, BALB/c mice", "description": "Specifically, the mouse FAP overexpressing NIH-3T3 cells and the CT26 cells in culture were resuspended in Hanks' Balanced salt solution (HBSS, Gibco) at a concentration of 1×10^6 cells/50 μl, respectively, and the cells were mixed in a 1:1 ratio, and then 100 μl per each mouse was transplanted into the subcutaneous region of the right flank of 6-week-old BALB/c mice using a 1 cc syringe (25G) to obtain an FAP-expressing fibroblast co-injection animal model. The tumor size was measured using a digital vernier caliper by measuring the short axis and long axis of the tumor, and the tumor size was measured twice a week using the calculation formula of (short axis, mm) 2×(long axis, mm)×0.5.\nNext, for drug efficacy evaluation, when the size of the tumor reached 100 mm^3, the mice were randomly divided into groups. Each experimental group consisted of 10 animals, and as a control, each 100 μl of 50 μg of T1.24m was intraperitoneally administered three times at an interval of 3 days. In the test group, each 100 μl of 10 μg and 50 μg of T1.02m and 50 μg of T1.01m, respectively, were intraperitoneally administered three times at an interval of 3 days to evaluate the tumor growth inhibitory ability."}, "[3]": {"test_system": "mouse FAP overexpressing B16F10 melanoma", "assay": "Melanoma model, mouse FAP overexpressing B16F10", "assay_type": "in vivo, C57BL/6J mice", "details": "10 μg and 100 μg i.v. once, control PBS, FIG. 30", "description": "In order to identify the anticancer effect through immune activation of the fusion protein, mouse FAP was overexpressed in the mouse melanoma cell line B16F10, which is known to have little immune cell infiltration, and then transplanted into C57BL/6J mice, and the tumor growth inhibitory ability was evaluated.\nSpecifically, the cells in culture were resuspended in Hanks' Balanced salt solution (HBSS, Gibco), and then 100 μl of 1×10^6 tumor cells per each mouse were transplanted into the subcutaneous region of the left the dorsal flank side of 6-week-old C57BL/6J mice.\nNext, for drug efficacy evaluation, when the size of the tumor reached 70 to 100 mm^3, the mice were randomly divided into groups. As the control, PBS was administered, and as the test group, T1.03m was intravenously administered once at a dose of 10 μg and 100 μg."}, "[4]": {"test_system": "FAP-overexpressing CT26 cells", "assay": "Tumor growth inhibition, FAP-overexpressing CT26 model, repeated i.p. dosing", "assay_type": "in vivo, BALB/c mice", "details": "18 days after administration, control 50 μg T1.24m", "description": "In order to prepare an mouse FAP-expressing tumor animal model, FAP overexpression was induced in CT26, a mouse colorectal cancer cell line. Specifically, the FAP-overexpressing CT26 cells in culture were resuspended in Hanks' Balanced salt solution (HBSS, Gibco), and then each 100 μl of 1×10^6 tumor cells per each mouse was transplanted into the subcutaneous region of the left dorsal side of 6-week-old BALB/c mice using a 1 cc syringe (25G) to obtain a mouse FAP-expressing colorectal cancer animal model. The tumor size was measured using a digital vernier caliper by measuring the short axis and long axis of the tumor, and the tumor size was measured twice a week using the calculation formula of (short axis, mm) 2×(long axis, mm)×0.5.\nNext, for drug efficacy evaluation, when the size of the tumor reached 100 mm^3, the mice were randomly divided into groups. Each experimental group consisted of 8 animals, and as a control, each 100 μl of 50 μg of T1.24m was intraperitoneally administered four times at an interval of 3 days. In the test group, each 100 μl of 10 μg and 100 μg of T1.01m, and 2 μg, 10 μg and 100 μg of T1.02m, respectively, were intraperitoneally administered four times at an interval of 3 days to evaluate the tumor growth inhibitory ability."}, "CT26 tumor": {"test_system": "CT26 tumor", "assay": "Tumor re-challenge in mice with complete response, CT26 tumor", "assay_type": "in vivo, BALB/c mice", "details": "mice with complete response after T1.01m, right flank, FIG. 26", "description": "as §1, §2, §3"}}, "data": [{"molecule": "B1", "values": [{"measurement": "growth of re-challenged 4T1 tumor", "setting": "4T1 tumor", "result": "the 4T1 tumor grew"}, {"measurement": "tumor growth inhibitory ability compared to the control", "setting": "[1]", "result": "excellent tumor growth inhibitory ability"}, {"measurement": "tumor growth inhibitory ability compared to control", "setting": "[2]; 50 μg i.p. three times at an interval of 3 days, 14th day, control 50 μg T1.24m", "result": 91.9, "unit": "%"}, {"measurement": "complete response", "setting": "[2]; 24th day after administration, FIG. 24", "result": "subjects in complete response were observed"}, {"measurement": "tumor growth inhibitory ability compared to the control", "setting": "[3]", "result": "high tumor growth inhibitory ability"}, {"measurement": "tumor growth inhibitory ability compared to control", "setting": "[4]; 10 μg i.p. four times at an interval of 3 days", "result": 84.9, "unit": "%"}, {"measurement": "tumor growth inhibitory ability compared to control", "setting": "[4]; 100 μg i.p. four times at an interval of 3 days", "result": 85.6, "unit": "%"}, {"measurement": "growth of re-challenged CT26 tumor", "setting": "CT26 tumor", "result": "the growth of the CT26 tumor was inhibited"}]}]}
